experiment: yeast display, Sf9 membrane polyspecificity reagent, FACS + sequencing; frameworks hold sequencing errors
How it was run: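 Galactose-induced (36–48 hours) yeast carrying a synthetic nanobody display library were exposed to 10% biotinylated, detergent-solubilized Sf9 membrane reagent at 4 °C for 1 hour. FACS followed streptavidin microbead enrichment, using low and high (top ~1%) gates for expression (anti-HA) and reagent binding (streptavidin). Colony PCR, MiSeq 2 × 250 sequencing and CDR-length filtering followed. Labels for polyreactivity reflect the gate of origin.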

Sequence | polyreactivity (PSR sort gate)
QVQLVESGGGLVQAGGSLRLSCAASGSIFYSNAMGWSRPAPGKEWELVAGITWTGGSTYYADSVKGRFTISRDNAKNTVYLQMNSLKPEYTEVYYCADRVYYRTVLGGYYYWGQGTQVTVSS | low polyreactivity
QVQLEESGGGLVQAGGSLRLSCAASGNILWKNAMGWYRQAPGKERELVAAITRSGGSTYYADSVKGRFTISRDNAKNTVYLQMNSLKPEDTAVYYCATRNLGYRPYRYDYWGQGTQVTVSS | high polyreactivity
QFQLVESGGGLVQAGGSLRLSCAASGSIFISNAMGWYRQAPGKERDLVAAISWTSGSTYYADSVKGRFTISRDNAKNTVYLQMNSLKPVDTAFYYCAALGGAALDWGVVEVGYWGKGTQVTVSS | low polyreactivity
QVQLVESGGGLVQAGGSLRLSCAASGRIFTRNVMGWYRQAPGKERELVARINSGGRTYYADSVKGRFTISRDNAKNTVYLQMNSLKPEDTAVYYCAVPFYWYSPMDSWGQGTQVTVSS | high polyreactivity
QVQLVESRGGLVQAGGSLRLSCATSGRIFAKYAMGWYRQAPGKESELVAAITTTGRTYYADSVKGRFTISRDNAKNTVYLQMNSLKPEDTAVYYCAVGYHAPKVSTSDARYDYWGQGTQVTVSS | low polyreactivity
QVQLVDSGGGLVQAGGSLRLSCPASGYTIVYNAMGCYRQGPGKEREFVAAITWSGTSTRYADSVKGRFTISRDKAKNTVYLQMNSLKPDDTAVYYCSARFPLVRYNYWGQGTQVTVSS | high polyreactivity
QVQLVESGGGLVQAGGSLRLSCAASGSTFSDYTMGWFRQAPGKERELVAAITTIGGSTYYADSVKGRFTISRDNAKNTVYLQMNSLKPEDTAVYYCAASYYYPLEYYYWGQGTQVTVSS | low polyreactivity
QVQLVESGGGLVQAGGSLRLSCAASGSTFDYYTMGWYRQAPGKERELVAAISSSGGSTYYADSVKGRFTISRDNAKNTVYLQMNSLKPEDTAVYYCAADPSPYGDEYDYWGQGTQVTVSS | low polyreactivity
QVQLVESGGGLVQAGGSLRLSCASSGSILWLNAMGWYRQAPGKERDLVAAITSRGGSTYYADSVKGRYTITRDNANNTVYLQMNSLKPEDTAVYYCATRSSRGSGSRFDYWGQGTQVTVSS | high polyreactivity
QVQLVESGGGLVQAGGSLRLSCAASGSTFSVYAMGWYRQAPGKERELVATITWNGGRTYYADSVKGRFTISRDNAKNTVYLQMNSLKREDTAVYYCASPWLKPGNGIYGGYGYWGQGTQVTVSS | high polyreactivity
QVQLVESGGGLVQAGGSLRLSCAASGRIFGINVMGWYRQAPGKERELVARITGRGGRTYYADSVKGRFTISRDNAKNTVYLQMNSLKPEDTAVYYCAADARYEAYDYWGQGTQVTVSS | high polyreactivity
QVQLVESGGGLVQAGGSLRLSCAASGSTFWGYTMGWYRPAPGKERELVAAITGSGGSTNYADSVKGRFTISRDNAKNTVYLQMNSLKPEDTAVYYCATQGITPSNSYDYWGQGTQVTVSS | low polyreactivity
QVQLVESGGGLVQAGGSLRLSCAASGFIFQGNAKGWYRQAPGKERELVAAITRGGGRTYYADSVKGRFTISRDNSKNTVYLQMNSLKPEDSAVNYCNAVGRSKYDYWGQGTQVTVSW | high polyreactivity
QVQLVESGGGLVQAGGSLRLSCAASGGIFVANAMGWYRQAPGKERELVAAISRSGGSTYYADSVKGRFTISRDNAKNTVYLQMNSLKPEDTAVYYCAAKSRRQYTVGLTSDYWGQGTQVTVSS | high polyreactivity
QVQLVESWGGLVQAGGSLRLSCAASGYTIPDNAMGWYRQAPGKEREWVATITSGASTYYADSVKGRFTSSRDNAKNTVYLQMNSLNPEDTAVYYFARDPWALGGIGSDQKYDYWGQGTQVTVSS | low polyreactivity
QVQLVESGGGLVQAGGSLRLSCAASGSTRRDYVMGWYRQAPGKERELVAAITSRVDDTYYADSVKGRFTISRDNAKNTVYLQLNSLKPEDTAVYYCAADYSVTLRIGGYYWFYAFDYWGQGTQLTVSS | low polyreactivity
QVQLVESVGGLVQAGGSLRLSCAASGDTFTSYAMGRYRQAPGKVRELVAAISRRGGSTYYAESVKGRFTISRDNAKNTVYLLMNSLKPEDTAFYYCAAKSYSYTEFDYGGQGTQVTVSS | high polyreactivity
QVQLVESGGGLDHAGGSLRLSCAASGYTLTDYVMGWYRQAPGKQRELVAAIDWRDGTTYADSVKGRFTISRDNAKNTVYLQFNILKPEDTAVYFCGTDELLTSPRYPEYDYWGQGTQVTVSS | low polyreactivity
QVQLVESGGGLVQAGGSLRLSCAASGSNFSSNAMGWYRQAPGKERELVAAISRSGVTTYYADSVKGRFTISRDNAKNTVYLQMNSLKPEDTAVYYCAGQPYSRLYGRYRGFQYKYVYWGHGTQVTVSS | low polyreactivity
QVQLVETGGVLVQAGGSLRLSFAASGIIFSISALGGYRQAPGKERELVAAITYSGGRTYYADSVKGRFTISRDTAKNTVYLQMNSLKPEDTAVYYCAADYYYYGSYYPVEYWGQGTQVTVSS | high polyreactivity
QVQLVESWGGLVQAGGSLRLSCAASGIIFRTYAMGWYRQAPWKERELVAAINSDGSTYYADSVKGRFTISRDNAKNTVYLQMNSLKPEDTAVYYCAATYGRSRKDGYWGQGTQVTVSS | high polyreactivity
QVQLVESGGGFVQAGGSLRLSCAASGSTCDGYSMGWYRQAPGKERELVAGISTSGGSTYYADSVKGRFTISRDNAKNTVYLQMNSLKPEDTAVYYCAAEWFDQVKDRAADYISYEYWGQGTQVTVSS | low polyreactivity

Sequence | polyreactivity (PSR sort gate)
QVQLVESGGGLVQAGGILRLSCAASGGIFNRYSKGWYRQAPGKERELVAGITRSGGSTSYADSVKGRFTISRDNAKNTVYLQMNSLKPEDTAVYFCKKVAYYASSSSYRFGAYGYWGQGSQVTVSS | high polyreactivity
QVQLVESGGGLVQAGGSLRLSCAASGFTFQSYAMGWYRQAPGKESELVAAISWSGGSTYYADSVKGRFTISRDNAKNTVYLEMNSLKPEDTAVYYCAADAPRSYRFGYWGQGTQVTVSS | high polyreactivity
QVQLVESGGGLVQAGGTLRLSCAASGFIFGYNAMGWYRQAPGKERELVARINSGGNTNYADSVKGLFSISRDNAKNTVYLLMNSLKPEDTAVYYCARDASNRYDYWRQGTQVTVSS | low polyreactivity
QVQLVESGGGLVQAGGSLRLSCAASGRIFYEYASGWYRQAPGKERELVAISTSGGNTYYADSVKGRFTISRDNAKNTVYLQMNSLKPDDTAVYYCAARLQYYPYYYWGQGTQVTVSS | high polyreactivity
QVQLVESGGGLVQAGGSLRLSCAASGRIFPVYAMGWYRQATGKERELVATISYSGSSTYYADSVKGRFTISRDNAKNTVYLQMNSLKPEDTAVYYCNADAFGPPGVQYYYWGQGTQVTVSS | low polyreactivity
HVQLVESGGGLVQAGGSLRLSCAASGFTFYVYAMGWYRQAPGTERELVAAISRGGSTYYADSVKGRFTISRDNAKNTVYLQMNSLKPEDTAVYYCNRVPSVSSSKVRYSNGFDYWGQGTQVTVSS | low polyreactivity
QVQLVESGGGLVQAGGSLRLSCAASGFTSRYVMGWYRQAPGKERELVASISRSGGSTYYADSVKGRFTISRDNAKNTVYLQMNSLKPEDTAVYYCAALGLSYSSRYYHWQNEFDYWGQGSQVTVSS | high polyreactivity
QVQLVESGGGLVQAGGSLRLSCAASGYIFWSNTMGWYRQAPGKERELVAAISQSTASTYYADSVKGRFTISRDNAKNTVYLQMNSLKPEDTAVYYCAADDYIDGDDYWGQGTQVTVSS | low polyreactivity
QVQLVDSGGGLVQAGGSLRLICAASGRTIDNYAMGWYRQAPGKERELVAVISRSGDRRYYPDSEKGRFTISRDNAKNTVYLPMKSLKPEDTAVYYCNAVYGRSIYDGLFYTYDYWGQCTQVTVSS | high polyreactivity
QVQLVESGGGLVQAGGSLRLSCAASGLIFPRYAMGWYRQAPGKERELVAAISSGGSTNYADSVKGRFTISRDNAKNTVYLQMNSLKPEDTAVYYCAASSYYYRFSRWPYYHRYYWGQGTQVTVSS | low polyreactivity
QVQLVESGGGLVQAGGSLRLSCAASGRTFASYAMGWYRQAPGKERELVAGITSGGNTYYADSVKGRFTISRDNAKNTVYLQMNSLKPEDTAVYYCNAVRRVSSAGEFDYWGQGTQVTVSS | high polyreactivity
QVQLVVSGGGLVQAGGSLSLSWDASGRTFARYTMGWYRQAPGKERELVASITRGGSPYYADSVKGRFTISRDNAKNYVYLQMNSLKAEDSSVFYCAARFPQHNYWAMDYCGQGTQVTVSS | high polyreactivity
QVQLVESGGGLVQAGGSLRLSCAASGLTFKRNAMGWYRPAPGKERELVAAIRYSTDSTNCADSVKGRFTISRDNAKNTVYLQMNSLKPEDTAVYYCAKDKQDYEYWGQGTQVTVSS | low polyreactivity
QVQLVESGGGLVQAGGSLRLSCAASGLTFRWYALGWFRQATGKERELVAAISSGGRTYYADSVKGRFTISRDNANNTVYLQMNSRKPEDTAVYYCNKRTLDYGFGSYGREYWGQGTQVTVSS | high polyreactivity
QVQLVESGGGLVQAGGSLRLSWAASGSTFRNYAMGWYRQAPGKEREFVAAISRSGGSTYYADSVKGRFTISRDNANNPVYLQMISLKPEETAVYYCNKESFWGPDNYWGQGTQETVSS | high polyreactivity
QVQLVESGGGLVQAGGSLRLSCAASGSIFKWYAMGWYRQAPGKERALVATISSSGSSTYYADSVKGRLTISRDNAKNTVYLQMNSLKPEDTAVYYCATTYGWRYPAMDYWGQGTQVTVSS | high polyreactivity
QVQLVESGGGLVQAGASLRLSCAASGITFWGYAMGWYRQAPGKEREFVARINWSGGRTYYAESVKGRFTISRDNAKNTVYLEMNSLKPEDTAVYDCAATSLIYGYRTYDYWGQGTQVTVSS | high polyreactivity
QVQLVESGGGLVQAGGSLRLSCAASGITFQSNTMGCYRQAPGKERELVAAITWTGGRTYYADSVKGRFTISRDNAKNTVYLQMNSLKPEDTAVYYCNADGYAIGYNGKLDYWGQGTQVTVSS | high polyreactivity
QVQLVESGGGLVQAGGSLRLSCAASGSIFVYYALGWYRQAPGKERELVAAISSSGDTTYYADSVKGRFTISRDNAKNTVYLQMNSLKPEDTAVYYCNTRNDRASQRWVSREMDYWGQGTQVTVSS | high polyreactivity
QVQLVESGGGLVQAGGSLRLSCAASGSIFTHNAMGWYRQAPGKERELVATISYGGGRTYYADSVKGRFTISRDNAKNTVYLQMNSLKPEDTAVYYCAADVYWYAYVWRKYGYWGQGTQVTVSS | low polyreactivity
QVQLVESGGGLVQAGGSLRLSCAASGSIFPGYAMGWYRQAPGKERELVAGITWSDARTYYADSVKGLFTISRDNAKNTVYLQMNSLKPEDTAVYYCAADYYYYERDYWGQGTQVTVSS | low polyreactivity
